Results taken from paper doi:10.1101/2020.08.13.232140, “Assembly and symmetry of the fungal E3BP-containing core of the Pyruvate Dehydrogenase Complex” (bioRxiv, 2020).

Key:
[1] = biological target: the molecule itself; assay: cryo-EM structure; reconstituted tE2+PX30 subcomplex of separately expressed components; icosahedral (map R1) and tetrahedral (maps R2X/Y) reconstructions
[2] = biological target: the molecule itself; assay: cryo-EM structure; co-expressed tE2/PX261 subcomplex; reconstruction under icosahedral symmetry
[3] = biological target: the molecule itself; assay: cryo-EM structure; native PDC purified from N. crassa mitochondria; single-particle reconstructions under icosahedral and tetrahedral symmetry (classes X, Y, N)

B1: N. crassa E2 core-forming domain (tE2), separately expressed (domain or fragment, UniProt P20285 225-458, looked up)
chain: AAYTDVPISGMRKTIAARLKESVTENPHFFVSTNLSVSKLLKLRQALNSSADGRYKLSVNDFLIKAMGIASKRVPTVNSSWRDGVIRQFETVDVSVAVATPNGLITPIVKGVEGKGLESISAAVKELAKKARDGKLKPEEYQGGSISISNMGMNPAVQSFTAIINPPQAAILAVGAPQKVAVPVENEDGTTGVSWDEQIIVTASFDHKVVDGAVGAEWIRELKKVIENPLELLL
notes: E2 of the pyruvate dehydrogenase complex, Neurospora crassa, residues 225-458 of UniProt P20285 (core-forming catalytic domain); model built for 227-458; pRSET vector; the His6-tag is cleavable with thrombin; Icosahedral assembly; source: E. coli Rosetta2 (DE3), single expression
B1: binds [1].

B2: untagged N. crassa E2 core-forming domain (tE2), co-expressed with PX constructs (domain or fragment, UniProt P20285 225-458, looked up)
chain: AAYTDVPISGMRKTIAARLKESVTENPHFFVSTNLSVSKLLKLRQALNSSADGRYKLSVNDFLIKAMGIASKRVPTVNSSWRDGVIRQFETVDVSVAVATPNGLITPIVKGVEGKGLESISAAVKELAKKARDGKLKPEEYQGGSISISNMGMNPAVQSFTAIINPPQAAILAVGAPQKVAVPVENEDGTTGVSWDEQIIVTASFDHKVVDGAVGAEWIRELKKVIENPLELLL
notes: E2 of the pyruvate dehydrogenase complex, Neurospora crassa, residues 225-458 of UniProt P20285 (core-forming catalytic domain); petDuet dual-expression vectors were built with the single-expression genes as template; PX stood in the His-tagged MCS1, tE2 untagged; also called untagged E2 core-forming domain; PDC core; source: E. coli Rosetta2 (DE3), co-expressed with His-tagged PX from petDuet, …
B2: binds [2].

B3: E2 of the native N. crassa pyruvate dehydrogenase complex (PDC core) (natural protein, UniProt P20285 29-458, looked up)
chain: ASYPPHTVVKMPALSPTMTSGGIGAWQKKPGDKIEPGEVLVEIETDKAQMDFEFQEEGVLAKILKDSGEKDVAVGNPIAILVEEGTDVNAFKDFTLKDAGGETSPAVPKDEPKNESTASAPTPAPTPAPEPENTSFTGRFQTALEREPNALPAAKRLAREKGIDLRNVKGSGPGGKITEEDVKKALASAPAAGAAAAAYTDVPISGMRKTIAARLKESVTENPHFFVSTNLSVSKLLKLRQALNSSADGRYKLSVNDFLIKAMGIASKRVPTVNSSWRDGVIRQFETVDVSVAVATPNGLITPIVKGVEGKGLESISAAVKELAKKARDGKLKPEEYQGGSISISNMGMNPAVQSFTAIINPPQAAILAVGAPQKVAVPVENEDGTTGVSWDEQIIVTASFDHKVVDGAVGAEWIRELKKVIENPLELLL
notes: E2 (acetyltransferase) component of the pyruvate dehydrogenase complex, Neurospora crassa, UniProt P20285; residues 232-458 identified in the native reconstruction; the recombinant E2 construct starts at residue 29; Strain WT STA74 / ATCC 14692; also called E2 core; source: endogenous, PDC purified from N. crassa mitochondria (sucrose cushion, sucrose gradient, SEC); copies: 60
In the case of B3, the “stoichiometry N” value [3] is reported as 60.
